The source of these data is patent US20190153108A1 (AbbVie / Abbott, published 2019).

The assay concerns the target human Epidermal Growth Factor Receptor (huEGFR) over-expressed in mcl-1-/- mouse embryonic fibroblasts (human, UniProt P00533 25-1210). In words: cell-based or functional assay.

B1: AbB-LB (antibody, V domains shown)
VH: EVQLQESGPGLVKPSQTLSLTCTVSGYSISNDFAWNWIRQPPGKGLEWMGYISYKGNTRYQPSLKSRITISRDTSKNQFFLKLNSVTAADTATYYCVTASRGFPWWGQGTLVTVSS
VL: DIQMTQSPSSMSVSVGDRVTITCHSSQDINSNIGWLQQKPGKSFKGLIYHGTNLDDGVPSRFSGSGSGTDYTLTISSLQPEDFATYYCVQYAQFPWTFGGGTKLEIKR
modifications: synthon LB on reduced interchain Cys
For the molecule B1, the “huEGFR^+ mcl-1^-/- MEF EC50” value amounted to 31 nM.

B2: AbK-LB (antibody, V domains shown)
VH: EVQLQESGPGLVKPSQTLSLTCTVSGYSISRDFAWNWIRQPPGKGLEWMGYISYNGNTRYQPSLKSRITISRDTSKNQFFLKLNSVTAADTATYYCVTASRGFPWWGQGTLVTVSS
VL: DIQMTQSPSSMSVSVGDRVTITCHSSQDITYNVGWLQQKPGKSFKGLIYHGSNLDHGVPSRFSGSGSGTDYTLTISSLQPEDFATYYCVQYDDFPWTFGGGTKLEIKR
modifications: synthon LB on reduced interchain Cys
For B2, the “huEGFR^+ mcl-1^-/- MEF EC50” value turned out to be 17 nM.

B3: AbA-ZT (antibody, V domains shown)
VH: EVQLQESGPGLVKPSQTLSLTCTVSGYSISRDFAWNWIRQPPGKGLEWMGYISYNGNTRYQPSLKSRITISRDTSKNQFFLKLNSVTAADTATYYCVTASRGFPYWGQGTLVTVSS
VL: DIQMTQSPSSMSVSVGDRVTITCHSSQDINSNIGWLQQKPGKSFKGLIYHGTNLDDGVPSRFSGSGSGTDYTLTISSLQPEDFATYYCVQYAQFPWTFGGGTKLEIKR
modifications: synthon ZT on reduced interchain Cys
Take B3: the “huEGFR^+ mcl-1^-/- MEF EC50” value turned out to be 104 nM.

B4: AbA-ZZ (antibody, V domains shown)
VH: EVQLQESGPGLVKPSQTLSLTCTVSGYSISRDFAWNWIRQPPGKGLEWMGYISYNGNTRYQPSLKSRITISRDTSKNQFFLKLNSVTAADTATYYCVTASRGFPYWGQGTLVTVSS
VL: DIQMTQSPSSMSVSVGDRVTITCHSSQDINSNIGWLQQKPGKSFKGLIYHGTNLDDGVPSRFSGSGSGTDYTLTISSLQPEDFATYYCVQYAQFPWTFGGGTKLEIKR
modifications: synthon ZZ on reduced interchain Cys
Regarding B4, the “huEGFR^+ mcl-1^-/- MEF EC50” value is 186 nM.

B5: AbG-LB (antibody, V domains shown)
VH: EVQLQESGPGLVKPSQTLSLTCTVSGYSISNDFAWNWIRQLPGKGLEWMGYISYKGNTRYQPSLKSRITISRDTSKNQFFLKLNSVTAADTATYYCVTASRGLPYWGQGTLVTVSS
VL: DIQMTQSPSSMSVSVGDRVTITCHSSQDITYNIGWLQQKPGKSFKGLIYHGANLDDGVPSRFSGSGSGTDYTLTISSLQPEDFATYYCVQYDEFPWTFGGGTKLEIKR
modifications: synthon LB on reduced interchain Cys
In the case of B5, the “huEGFR^+ mcl-1^-/- MEF EC50” value is 24 nM.

B6: AbK-WD (antibody, V domains shown)
VH: EVQLQESGPGLVKPSQTLSLTCTVSGYSISRDFAWNWIRQPPGKGLEWMGYISYNGNTRYQPSLKSRITISRDTSKNQFFLKLNSVTAADTATYYCVTASRGFPWWGQGTLVTVSS
VL: DIQMTQSPSSMSVSVGDRVTITCHSSQDITYNVGWLQQKPGKSFKGLIYHGSNLDHGVPSRFSGSGSGTDYTLTISSLQPEDFATYYCVQYDDFPWTFGGGTKLEIKR
modifications: synthon WD on reduced interchain Cys
As to B6, the “huEGFR^+ mcl-1^-/- MEF EC50” value worked out at 35 nM.

B7: AbG-WD (antibody, V domains shown)
VH: EVQLQESGPGLVKPSQTLSLTCTVSGYSISNDFAWNWIRQLPGKGLEWMGYISYKGNTRYQPSLKSRITISRDTSKNQFFLKLNSVTAADTATYYCVTASRGLPYWGQGTLVTVSS
VL: DIQMTQSPSSMSVSVGDRVTITCHSSQDITYNIGWLQQKPGKSFKGLIYHGANLDDGVPSRFSGSGSGTDYTLTISSLQPEDFATYYCVQYDEFPWTFGGGTKLEIKR
modifications: synthon WD on reduced interchain Cys
With B7, the “huEGFR^+ mcl-1^-/- MEF EC50” value worked out at 5.8 nM.
